Source: the RNAGym collection of RNA variant scans (doi:10.7554/elife.80360)

B1: CPEB3 Ribozyme (parent)
chain: GGGGGCCACAGCAGAAGCGUUCACGUCGCGGCCCCUGUCAGAUUCUGGUGAAUCUGCGAAUUCUGCUGU

Variants of: B1
Test: self-cleavage, relative activity (ratio to wild type); higher = more cleavage; co-transcriptional

| Variant | self-cleavage |
| --- | --- |
| G50A G65C | 0.683 |
| U55C G56A | 0.996 |
| U55C G56C | 0.583 |
| G50U G68U | 1.02 |
| A52C G58A | 0.887 |
| A52C G58C | 0.986 |
| G50U G56C | 0.649 |
| U55A U62C | 0.67 |
| U55A U62A | 0.489 |
| G50C C57G | 0.314 |
| A51C A52U | 0.864 |
| C54A A60C | 0.272 |
| C54U U61C | 0.861 |
| A51C U62G | 0.778 |
| A51U C57A | 0.374 |
| G50C C54A | 0.53 |
| A52U G58A | 0.939 |
| A51U A52U | 0.96 |
| A52U U61G | 0.741 |
| A52G A59U | 0.82 |
| A52G A59G | 0.98 |
| A52G A59C | 0.793 |
| C54G G65C | 0.503 |
| A51U U53A | 0.918 |

| Variant | self-cleavage |
| --- | --- |
| U53G U64A | 0.604 |
| G56A G58C | 0.971 |
| G56A G58A | 0.905 |
| U55G U69C | 0.962 |
| A52C U62G | 0.806 |
| A52C A59U | 0.68 |
| A51G U61C | 0.777 |
| G50A G56U | 0.905 |
| G50A G56C | 0.675 |
| A52C U53G | 0.788 |
| U55G A59U | 0.394 |
| G50A U67G | 1.02 |
| G50A U67C | 1.01 |
| A52G U67G | 1.02 |
| A52G U67C | 0.944 |
| U55G U62G | 0.381 |
| A51G C57G | 0.322 |
| A51G U55A | 0.87 |
| G56C A59C | 0.403 |
| G56C A59G | 0.705 |
| A51C U64G | 0.841 |
| U53A U55G | 0.411 |
| U53A U55C | 0.43 |
| U55A G65U | 0.421 |

| Variant | self-cleavage |
| --- | --- |
| U55A G65C | 0.491 |
| U53A C63A | 0.673 |
| U53G C66U | 0.929 |
| U53G C66G | 0.647 |
| G56A C66A | 0.702 |
| A51C A60C | 0.477 |
| C54G U67A | 0.938 |
| U49G U67C | 0.964 |
| A52U U55G | 0.56 |
| A52U U55A | 0.7 |
| U55G C57A | 0.317 |
| C54U C63U | 1.02 |
| G56A U69A | 1.03 |
| A51U C54A | 0.633 |
| G50C A60G | 0.959 |
| G50A C63U | 0.986 |
| A52U U67A | 0.978 |
| A52U G56U | 0.848 |
| A52U G56A | 0.909 |
| U55A A60C | 0.343 |
| A52G U55C | 0.722 |
| G50C A52U | 0.884 |
| U53A C54A | 0.907 |
| U53A C54U | 0.882 |

| Variant | self-cleavage |
| --- | --- |
| A52C C57A | 0.414 |
| A52C C57U | 0.398 |
| U55C U64A | 0.567 |
| G50U G65C | 0.73 |
| G50U G65U | 0.809 |
| G56A U61C | 0.617 |
| G56A U61G | 0.676 |
| A51U U55G | 0.662 |
| C54U U55G | 0.806 |
| C54G U55G | 0.407 |
| C54G U55A | 0.745 |
| U53G G68U | 0.986 |
| U53G G68C | 0.882 |
| U53A U61G | 0.581 |
| C54G U61G | 0.436 |
| C54G U61A | 0.569 |
| G50C G68A | 0.992 |
| U53C G56U | 0.399 |
| G50C U69C | 1.07 |
| A51C U61G | 0.551 |
| A51C U61C | 0.796 |
| U53C U69A | 0.977 |
| A52U U62C | 0.765 |
| C54G C57U | 0.392 |

| Variant | self-cleavage |
| --- | --- |
| A52G C54G | 0.861 |
| C54A C66G | 0.466 |
| C54A U67G | 0.887 |
| C54A U67C | 0.887 |
| C54A U69G | 1.01 |
| G50C U64A | 0.792 |
| A52G C57A | 0.343 |
| A52C C63A | 0.795 |
| U55A U61C | 0.445 |
| A52C U69A | 0.977 |
| G50U G58C | 0.942 |
| G56C G58A | 0.76 |
| G56C G58C | 0.907 |
| G56C G58U | 0.917 |
| U55A C63U | 0.736 |
| U55C A59C | 0.464 |
| U55C A59G | 0.967 |
| U55G U67G | 0.826 |
| U53G A59U | 0.576 |
| G56C U64G | 0.533 |
| G50U C66U | 1.01 |
| G50U C66A | 0.824 |
| G50U C66G | 0.923 |
| G50A C66A | 0.848 |

| Variant | self-cleavage |
| --- | --- |
| G50A C66G | 0.902 |
| G50A U53A | 0.903 |
| U53G U67A | 0.779 |
| U53G U67C | 0.901 |
| U53G U67G | 0.894 |
| A51C G56C | 0.57 |
| A51G A52G | 0.925 |
| U53C C66U | 0.801 |
| U53C C66A | 0.386 |
| G50U U64C | 0.947 |
| G50U U64G | 0.864 |
| U55A U64A | 0.532 |
| A51U G56U | 0.879 |
| A51U G56A | 0.889 |
| A51U G56C | 0.486 |
| A52G C66G | 0.966 |
| A52G G68U | 0.988 |
| A52C U67C | 1 |
| A52C U67G | 1 |
| A51U G58C | 0.975 |
| A51U G58A | 0.941 |
| U53G G58A | 0.818 |
| C54G U69C | 1.04 |
| C54G G68U | 0.993 |

| Variant | self-cleavage |
| --- | --- |
| U49G U64G | 0.926 |
| U49G U64C | 0.932 |
| C54G G56U | 0.46 |
| U55A U69G | 1 |
| C54A G68C | 0.942 |
| C54A G68U | 0.963 |
| C54U A59C | 0.678 |
| U55C | 0.937 |
| U55G | 0.881 |
| U55A | 0.96 |
| A51G C66G | 0.84 |
| A51G C66U | 0.972 |
| A51G C66A | 0.875 |
| G50U U55G | 0.8 |
| G50U U55A | 0.882 |
| U55C A60G | 0.602 |
| U55C A60U | 0.388 |
| A52G G65U | 0.894 |
| A52G G65C | 0.843 |
| A52G G58C | 0.972 |
| U55A G58A | 0.927 |
| A51U U61C | 0.808 |
| C54U U64G | 0.924 |
